Experimental findings from patent publication US20100233154A1, “TARGETED BINDING AGENTS DIRECTED TO HEPARANASE AND USES THEREOF 463” (MedImmune Limited, priority 2008, published 2010) are described below.

Experiment [1] concerns the target T1, recombinant human heparanase (Homo sapiens, UniProt Q9Y251).
T1 construct: Heparanase 8 and 50 kDa sub-units were cloned into pacGP67 as Sma 1-EcoR1 fragments; made in house; host or cells: Hi5 insect cells, baculovirus (pFastBac Dual)
T1 sequence (Q9Y251 158-543 limits assumed): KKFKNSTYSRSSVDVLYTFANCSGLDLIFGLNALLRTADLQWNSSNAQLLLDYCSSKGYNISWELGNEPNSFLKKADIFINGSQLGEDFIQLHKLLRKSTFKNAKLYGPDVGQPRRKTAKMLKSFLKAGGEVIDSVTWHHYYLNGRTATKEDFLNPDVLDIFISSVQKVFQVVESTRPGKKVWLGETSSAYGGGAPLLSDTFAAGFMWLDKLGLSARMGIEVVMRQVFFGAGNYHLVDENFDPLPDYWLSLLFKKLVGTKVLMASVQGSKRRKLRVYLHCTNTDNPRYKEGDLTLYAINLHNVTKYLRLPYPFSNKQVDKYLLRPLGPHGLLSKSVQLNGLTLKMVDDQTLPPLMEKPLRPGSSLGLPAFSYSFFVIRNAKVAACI
T1 sequence (Q9Y251 36-109 limits assumed): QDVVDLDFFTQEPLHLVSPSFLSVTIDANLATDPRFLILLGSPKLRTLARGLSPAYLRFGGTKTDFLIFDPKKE
Nature of the experiment: ELISA binding to directly coated recombinant human heparanase. On the procedure: (§1) Titres of antibodies from Campaigns 1 and 2 were determined in an ELISA. Costar 3368 medium binding plates were coated directly with recombinant human heparanase or plates were coated with Rabbit anti-heparanase antibody (Raybiotech, Cat. IP-14-155) to capture recombinant heparanase. Directly coated heparanase was detected in three separate plates by mouse (InSight Cat. INS-26-1-0000), goat (Santa Cruz, Cat. sc26136) or rabbit (Raybiotech, Cat. IP-14-155) anti-heparanase antibodies, and quantified using appropriate secondary antibodies. Antibody captured heparanase was detected using mouse anti-heparanase (Insight Cat. INS-26-1-0000). At the end of the immunisation program, fusions were performed using mouse myeloma cells and lymphocytes isolated from the spleens and lymph nodes of the immunised mice by means of electroporation, as described in Example 2.
(§2) Initial screening to detect antibodies binding to human heparanase in both direct coating and antibody capture ELISAs as described above identified 800 hybridomas for further testing; 535 IgG2 from Campaign 1 and 2 and 265 IgG4 from Campaign 2. Enzyme inhibition assays and cross species binding to cynomolgus and murine heparanase, in an antibody capture ELISA, identifed 12 antibodies that were taken forward for sub-cloning to provide purified antibodies for further analysis. Subsequently, confirmation of activity against human heparanase (FIGS. 3 and 4) and inhibition of recombinant cynomolgus and murine heparanase activity in the HS-cryptate degradation assay (FIG. 5a-c), together with sequence analysis, identified 8 antibodies that are described in the table below.
A general note: An ELISA detects its analyte on a solid surface through an enzyme-linked reagent.

Experiment [2] has as its target T2, recombinant heparanase captured with rabbit anti-heparanase antibody (Homo sapiens, UniProt Q9Y251).
T2 construct: Heparanase 8 and 50 kDa sub-units were cloned into pacGP67 as Sma 1-EcoR1 fragments; made in house; host or cells: Hi5 insect cells, baculovirus (pFastBac Dual)
T2 sequence (Q9Y251 158-543 limits assumed): T1 sequence (Q9Y251 158-543 limits assumed)
T2 sequence (Q9Y251 36-109 limits assumed): T1 sequence (Q9Y251 36-109 limits assumed)
Nature of the experiment: ELISA binding to antibody-captured heparanase. The following applies: antibody capture. On the procedure: as §1, §2

A further experiment has as its target T3, human heparanase (Homo sapiens, UniProt Q9Y251).
T3 sequence (Q9Y251 36-543): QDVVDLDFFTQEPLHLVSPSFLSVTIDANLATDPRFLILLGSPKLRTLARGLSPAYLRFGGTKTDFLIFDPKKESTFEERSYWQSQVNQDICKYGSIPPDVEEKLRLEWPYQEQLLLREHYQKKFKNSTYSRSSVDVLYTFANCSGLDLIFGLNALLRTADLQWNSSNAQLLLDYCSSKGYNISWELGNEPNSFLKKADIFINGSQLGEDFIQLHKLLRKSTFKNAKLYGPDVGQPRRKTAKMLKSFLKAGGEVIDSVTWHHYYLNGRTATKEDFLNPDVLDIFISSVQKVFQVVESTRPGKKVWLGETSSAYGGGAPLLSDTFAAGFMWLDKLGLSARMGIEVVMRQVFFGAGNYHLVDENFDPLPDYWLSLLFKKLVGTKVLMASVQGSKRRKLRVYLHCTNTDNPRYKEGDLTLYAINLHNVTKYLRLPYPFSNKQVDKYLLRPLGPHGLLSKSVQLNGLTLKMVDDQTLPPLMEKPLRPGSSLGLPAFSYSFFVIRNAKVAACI
Put plainly: Cross species capture ELISA, human heparanase. Type of experiment: binding. On the procedure:
(§3) Initially, cross species binding to human, murine and cynomolgus heparanase was determined in an ELISA assay in which heparanase was captured onto plates using a rabbit anti-heparanase antibody (Raybiotech, Cat. IP-14-155). Exhaustive supernatants were added to the plates at a final dilution of 1:5 and bound antibody detected with a rabbit anti-human IgG Fc.

In another experiment the test system is cynomolgus heparanase. Nature of the experiment: Cross species capture ELISA, cynomolgus heparanase. Type of experiment: binding. The following applies: min 0.06, max 1.5 OD units. On the procedure:
as §3

The target of another experiment is T4, Recombinant Hpa1 (Homo sapiens, UniProt Q9Y251).
T4 construct: Heparanase 8 and 50 kDa sub-units were cloned into pacGP67 as Sma 1-EcoR1 fragments; made in house; host or cells: Hi5 insect cells, baculovirus (pFastBac Dual)
T4 sequence (Q9Y251 158-543 limits assumed): T1 sequence (Q9Y251 158-543 limits assumed)
T4 sequence (Q9Y251 36-109 limits assumed): T1 sequence (Q9Y251 36-109 limits assumed)
Put plainly: Medium resolution Biacore affinity. Type of experiment: binding. The following applies: purified antibody captured on CM4 chip; Hpa1 1 nM and 10 nM; 25° C. On the procedure: For medium resolution Biacore™ tests, cloned and purified antibodies were used. Each of three purified antibodies (10E9.1, 15A1.2, and 15A11.1) were captured onto a high-density goat anti-human antibody surface over a CM4 Biacore™ chip. Recombinant Hpa1 was diluted to the desired concentration (1 nM and 10 nM) in 10 mM HEPES, 150 mM NaCl, 0.005% tween-20, 0.1 mg per ml BSA pH7.4 (25° C.) immediately prior to injection. Data were fit globally to a 1:1 interaction model with a term for mass transport included. The resulting KD values are summarised below in Table 4.
(In general: In SPR one partner is held on a chip, and binding of the other changes the refractive index at the surface.)

Another experiment relates to HCT116 xenograft. Put plainly: Subcutaneous xenograft tumour growth, HCT116. The settings on record: once weekly i.p.; 10E9.1 at 15 mg per kg. In kind it is in vivo, SCID mice. On the procedure:
MCF7-Hpa1#19 and HCT116 tumour cells were harvested from sub-confluent cultures. A total of 5×10^6 (MCF7-Hpa1#19) or 10^7 (HCT116) tumour cells were inoculated subcutaneously into the flank of male SCID mice. HCT116 tumour cells were implanted in PBS; […] cells were implanted in PBS containing 50% matrigel.
When tumours had attained ˜200 mm^3, tumour bearing mice were randomised into treatment groups and dosed with the following; PBS; an isotype matched control IgG2 antibody, 15 mg per kg; anti-heparanase antibody 10E9.1, 7.5 or 15 mg per kg. All treatments were administered once weekly i.p. Tumour growth was measured twice per week using calipers and tumour volumes calculated according to an ellipsoid volume is formula (3.142/6×length×width×width) from measures of the largest tumour diameter and two opposing widths (FIG. 11).

B1: 10E9.1: fully human anti-heparanase monoclonal antibody, G2κ; VH SEQ ID NO 2, VL SEQ ID NO 4; ATCC PTA-9489 (antibody, listed as Homo Sapiens, V domains shown)
VH: QVQLVQSGAEVKKPGASVKVSCKVSGYSLTELSIHWVRQAPGKGLEWMGGFDPEDGEIIFAQKFQGRVTLTEDISLDTAYMEVSSLRSEDTAVYYCATEGHDSGDYVGYYYYGLDVWGQGTTVTVSS
VL: DIQMTQSPSSLSASVGDRVTITCRASQDIRNFLAWYQQKPGKLPKLLIYAASTLQSGVPSRFSGSGSGTDFTLTISSLQPEDVASYYCQSHNSVPFTFGPGTKVDIR
notes: fully human anti-heparanase monoclonal antibody, G2κ; ATCC PTA-9489
For the molecule B1, the “Binding to direct coated heparanase” value in experiment [1] worked out at 0.2 OD units. In addition, the “Binding to captured heparanase” value in experiment [2] was 0.87 OD units. Also, the “Binding to heparanase Human” value with human heparanase came out at 0.63 OD units. For the same molecule, the “Binding to heparanase Cyno” value in the experiment with cynomolgus heparanase came to 1.4 OD units. For the same molecule, in the experiment with Recombinant Hpa1, the ka was found to be 2.06e+06 M⁻¹ s⁻¹ and the kd stood at 0.000112 s⁻¹. Further, the Tumour growth inhibition entry in the experiment with HCT116 xenograft is recorded as “not inhibited”.
